B1: Alanine--tRNA ligase, cytoplasmic (Mus musculus), Q8BGQ7 (parent)
chain: MDATLTAREIRERFINFFRRNEHTYVHSSATIPLDDPTLLFANAGMNQFKPIFLNTIDPSHPMAKLSRAANTQKCIRAGGKHNDLDDVGKDVYHHTFFEMLGSWSFGDYFKELACKMALELLTQEFGIPVERLYVTYFGGDEAAGLEPDLECRQIWQNLGLDEARILPGNMKDNFWEMGDTGPCGPCSEIHYDRIGGRDAAHLVNQDDPNVLEIWNLVFIQYNRESDGVLKPLPKKSIDTGMGLERLVSVLQNKMSNYDTDLFMPYFEAIQKGTGARPYTGKVGAEDADGIDMAYRVLADHARTITVALADGGRPDNTGRGYVLRRILRRAVRYSHEKLNASRGFFATLVDVVVQSLGDAFPELKKDPEMVKDIINEEEVQFLKTLSRGRRILDRKIQSLGDCKTIPGDTAWLLYDTYGFPVDLTGLIAEEKGLVVDMNGFEEERRLAQLKSQGKGAGDEDLIMLDIYAIEELRAKGLEATDDSPKYNYQSDSSGSYVFECTVATVLALRREKMFVDEVVTGQECGVVLDKTCFYAEQGGQIYDEGYLVKVDDSSEDKTEFTVKNAQVRGGYVLHIGTIYGNLKVGDQVRLFIDEPRRRPVMSNHTATHILNFALRSVLGEADQKGSLVAPDRLRFDFTAKGAMSTQQIKKAEEIVNGMIEAAKPVYTQDCPLAAAKAIQGLRAVFDETYPDPVRVVSIGVPVSELLDDPCGPAGSLTSVEFCGGTHLRNSSHAGAFVIVTEEAIAKGIRRIVAVTGAEAQKALRKSETLKKSLSAMEAKVKAQTAPNKDVQREIADLGEALATAVIPQWQKDEQRETLKSLKKVMDDLDRASKADVQKRVLEKTKQLIDSNPNQPLVILEMESGASAKALNEALKLFKTHSPQTSAMLFTVDNEAGKITCLCQVPQNAANRGLKASEWVQQVSGLMDGKGGGKDMSAQATGKNVGCLQEALQLATSFAQLRLGDVKN
B2: Ankyrin repeat domain-containing protein 16 (Mus musculus), A2AS55-1 (parent)
chain: MALPGDPRRLCRLVQEGRLRDLQEELAVARGCRGPAGDTLLHCAARHGRQDILAYLVEAWSMDIEATNRDYKRPLHEAASMGHRDCVRYLLGRGAVVDSLKKADWTPLMMACTRKNLDVIQDLVEHGANPLLKNKDGWNSFHIASREGHPVILRYLLTVCPDAWKTESNIRRTPLHTAAMHGCLEAVQVLLERCHYEPDCRDNCGVTPFMDAIQCGHVSIAKLLLEQHKACSSAADSMGAQALHRAAVTGQDEAIRFLVCGLGIDVDVRAKSSQLTALHYAAKEGQTNTVQTLLSLGADINSTDERNRSVLHLACAGQHVACTRLLLQSGLKDSEDLTGTLAQQLTRSVDILQDFDHDVKS

Variants of: B1
Conditions: with Ankrd16, A2AS55-1

| Variant | effect of a mutation on the interaction |
| --- | --- |
| A734E | with no effect |

Variants of: B2
Conditions: with syac_mouse Aars1, Q8BGQ7

| Variant | effect of a mutation on the interaction |
| --- | --- |
| K102R;K135R;K165R | disrupting interaction strength |

Source: IntAct's records for PubMed 29769718
